Reference: the DeepSol protein solubility set

Experiment: soluble on expression in E. coli; label from the status in PepcDB or PDB records

Sequence | soluble on expression in E. coli
MGSDKIHHHHHHKQEPISKSGVPVINLSEDVSTVPSLLLSEAAEKLEIVPLEMTDESVLSDITEMQVTDHNIWIDHGREFYIYRFSRTGKFLNKIGSIGQGPGEYTTYSTFLVDEDKKEVYIIANTNGVLAYDFEGNFKRKIIDIQMILQLFSSPYDQYILNNQKFFATQNFGLYRPIDKDSLWSFVSLGDDFQKKKYFKNPAHVGREEQIIANRANMDRMVNYWREYLTSMDTYNAQLTLKYPDTDTIYCYDDATNQLSPQYAIFTDEEKGDYEATHLWFKDRKAFDYFSIFSYYPTKDFIYLVGSKGEEVYTYCYNKKDGSVRLQKRQSTITERDVPWFSFPLRQMKRDFVLDNDLGGGDFTVDSRSSGKYWIDILEPGGDENWIDIDQIKSSTVIDESKKKELIRVLESATEDSNPILMIATLK | not soluble
MGSDKIHHHHHHMTNENLCAGRNRYDGVSIDFFSDADLRAIDSATMDVFQNPGIQVSDAESRALFKEAGCDVNEKTMVVKIPEHVVRRAIMTAPSKITLYGREKQHTFTQQAGGKVHYTCFGTGVKMCKYEAPGVFKTVDSTEEDLANTARVCDWADNIDSYSLAVSARDWAGKGAQDVHETFTPLMNTSKHFFHIDPVGENVEYYWDILKAYYGGDEEQARSRPIFSELLCPTSPLKIGTNACQLILKSVNFGIPINVISMAMSGASCPVHLAGTLVTHNAEVLSGIVLAQLASPGAKVWYGSSTTAFDLKHGTAPVGSPELGLISAAVAKLGQYYDLPTYVAST | not soluble
HMARSLYPLGVSRSLPPYRRTFNHQTFIFVKSILRLGVSMEEEEFDIREALANGEHLEKILIMAKYDESVLKKLIELLDDDLWTVVKNAISIIMVIAKTREDLYEPMLKKLFSLLKKSEAIPLTQEIAKAFGQMAKEKPELVKSMIPVLFANYRIGDEKTKINVSYALEEIAKANPMLMASIVRDFMSMLSSKNREDKLTALNFIEAMGENSFKYVNPFLPRIINLLHDGDEIVRASAVEALVHLATLNDKLRKVVIKRLEELNDTSSLVNKTVKEGISRLLLLEGHSSS | soluble
MTASDYEWQPDILGKDFQQLVIPLGADPISEGGEDDIFATLVRYAPADQPTPTSRPAVLFVHGMTDYFFQRHVAQWFHQHGFSVYALDLRKCGRSHRNNQSWHYISDISRYFEELDRAKSIIEELHPTIFPIGHSTGGLILAHWLDGLRQCETLHPTIPGAILNSPWLDMMTPATVTRALRPILTRAARRFPHASFGRSKEGTYGRSLHASRSGEWDYDISFKPLTGHLRKLGWLHAIDTAQSLVHNDAVDCGIPLLMLCSDHSSLRGKFSPRAQVTDTVLDVEQMKRWAPHLSEYVSVCTIRGAVHDVYLSQKPARLQALETSVRWMNRILSEHTI | not soluble
MGSDKIHHHHHHMDLYQEELIKKISAITPFYIVGGTVRDHLLNRPGKDVDGIIPIPLEELEKHLREWGYHPLKIGAKHQTLSVFQQGQRMDINFFDGDLEADALRRDFTINAVFQDARTGELIDPLQGREDLENKLLRACGNPWERFREDPVRILRMVRFSVQYGMDIEEDTFRSAQSLLPELKHVASERTSEELGRILTLADPAAGIRLLNELGYLTLYLPELVRLQGLAQNRYHTKDAWEHTLQVLANTPPQPILRLAGLFHDLGKWEVASRECYVWGKCWAEDKGYYIGEYRILGRQLHRYHGDYVEVHGTRLDHYPQVIQVKRIRKDPSCRRGFEWVRDGKRHFLGHEKESGRLTRQILARFRLAMVLGKEGEGGEKELLWLIENHMSGTLSFIAELRGEGSALQLNQKVRQFVWEKGWDGRSYRLTRVDQLLELWRADFYGGKKREPKEEQIFEELLEKLHQTNKAVQKRHQELEWGELEKFAQEHKIKGREWGDFKESLRKTRVVSVDWIPLTTGFLEKEYKHFKGRNYAKRERE | not soluble
MRGSHHHHHHTDPALRALVSSNVTMQFGSKPLFENISVKFGGGNRYGLIGANGSGKSTFMKILGGDLEPTLGNVSLDPNERIGKLRQDQFAFEEFTVLDTVIMGHKELWEVKQERDRIYALPEMSEEDGYKVADLEVKYGEMDGYSAEARAGELLLGVGIPVEQHYGPMSEVAPGWKLRVLLAQALFADPDILLLDEPTNNLDIDTIRWLEQVLNERDSTMIIISHDRHFLNMVCTHMADLDYGELRVYPGNYDEYMTAATQARERLLADNAKKKAQIAELQSFVSRFSANASKSRQATSRARQIDKIKLEEVKASSRQNPFIRFEQDKKLFRNALEVEGLTKGFDNGPLFKNLNLLLEVGEKLAVLGTNGVGKSTLLKTLVGDLQPDSGTVKWSENARIGYYAQDHEYEFENDLTVFEWMSQWKQEGDDEQAVRSILGRLLFSQDDIKKPAKVLSGGEKGRMLFGKLMMQKPNILIMDEPTNHLDMESIESLNMALELYQGTLIFVSHDREFVSSLATRILEITPERVIDFSGNYEDYLRSKGIEGLCGR | soluble
ESSDHLRLVAWYIPVKNSKRTVVLAHGFAGNKGLMGAWAGMYHELGYNVLVPDSRASGASQGKAVGYGWLERRDDLQWAKTVVHKTATTQIVMSGISMGAAGMTMASGERQLPQIKAYVVDSPFTSADAIISYQAGQLYHLPAFPLVNVTSLITKLRAGYSFKEADAVAQIRKNHLPIMIISGTRDDFVPTSMGKTLYRNAHQPKSLWLVKGAGHTTAITQNYQRYKRHVTAFLEQYVQ | not soluble
MGSDKIHHHHHHMDILLANPRGFCAGVNRAIQIVDRALELFGAPIYVRHEVVHNRHVVEDLRARGAIFVEELDEVPDAATVIFSAHGVPIAVREHAAARGLSVFDATCPLVTKVHMEVKKYSRDGMEMVLIGHAGHPEVEGTMGQVEEGMMYLVSNVSDVATLAPRNPDKLAYITQTTLSMDDTAEVIVALRSRFPLIEGPKKDDICYATQNRQDAVKSLAPDVDILLVVGAPNSSNSSRLAELGTRLGTQTHLIEDAQQLRREWFEGVGKIGISAGASAPESLVQEIMDTLRGWGARVPQEMPGVEEKVTFSLPLALIQAQTRREGA | not soluble
AHHHHHHGSPKIGIIGGSGVYGIFEPKETVKVHTPYGRPSAPVEIGEIEGVEVAFIPRHGKYHEFPPHEVPYRANIWALHELGVERVIAVNAVGSLKEEYKPGDIVIIDQFIDFTKKREYTFYNGPRVAHISMADPFCPELRRIFIETAKELNLPVHEKGTYICIEGPRFSTRAESRMFRQFADVIGMTLVPEVNLARELGMCYVNISTVTDYDVWAEKPVDAQEVLRVMKENEEKVQKLLKRAIPKIPEERKCGCADVLKTMFV | not soluble
MHYDVIVIGGGPSGLMAAIGAAEEGANVLLLDKGNKLGRKLAISGGGRCNVTNRLPLDEIVKHIPGNGRFLYSAFSIFNNEDIITFFENLGVKLKEEDPGRMFPVSNKAQSVVDALLTRLKDLGVKIRTNTPVETIEYENGQTKAVILQTGEVLETNHVVIAVGGKSVPQTGSTGDGYAWAEKAGHTITELFPTEVPILSNEPFIRDRSLQGLALRDINLSVLNPKGKAIISHKMDMLFTHFGLSGPAALRCSQFVVKALKKFKTNTIQMSIDALPEENSEQLFQRMLKQMKEDPKKGIKNVLKGYVPERYFLFLLEKNEIDGSEQAGQVSHEKIRALVKDFKEFTVNVNGTQSIEKAFVTGGGVSVKEINPKEMSSKFTNGLYFCGEVLDIHGYTGGYNITSALVTGRIAGTTAGENAKMQY | soluble
MSLRPARKTVGVALSGGGANGIAQIGVLKALDEERIPVDYIAGTSMGAIIGGLYSCGYSPADLEKIAETLPWQSVLSIREENPRARIFLEQQRIRDRSTIAIRFDKLKLMIPKSLSSAQALTGTLDLLILNGVYHSWQDFNSLPVQFRAVSTDLISGKRITLTSGSLSEAMRASSTIPVLFEPIERDGYRLVDGGLVANLPVDELDVVNASYKIAVDTHGSMYSKSGDLDLPWKAADQAITILTGLQYPAQLEKADEGHHHHHH | soluble
MGSDKIHHHHHHMKNTELEQLINEKLNSAAISDYAPNGLQVEGKETVQKIVTGVTASQALLDEAVRLGADAVIVHHGYFWKGESPVIRGMKRNRLKTLLANDINLYGWHLPLDAHPELGNNAQLAALLGITVMGEIEPLVPWGELTMPVPGLELASWIEARLGRKPLWCGDTGPEVVQRVAWCTGGGQSFIDSAARFGVDAFITGEVSEQTIHSAREQGLHFYAAGHHATERGGIRALSEWLNENTDLDVTFIDIPNPA | not soluble
MALWVDKYRPKDLLGKDGVDYHIEQANHLKFLSADCMPHLLFCGPSGAGKKTRIKCLLRELYGVGVEKTQLIMKSFTSPSNKKLEIQTVSSNYHIEMTPSDVGIYDRVVVQDLVKEMAQTSQIESTSQRSFKVVVLCEADSLTRDAQHGLRRTMEKYANNCKIVLSCESLSRIIEPLQSRCIIINVPAPTDEDVTKVLRKVIERESFLLPENVLQKIVEKSEGNLRRAILMTEALRMENESGVAESVVIPVPEWEIYIQETARLILQKQSSDMLLKVRERLYELLSRCIPPTVIFKKLLEHLLPKCPPQIAREVVSEAAKFEHRLVLGQKAIFHLEGFVAAFMDIYLTNASKPK | not soluble
MKAERILGALYGQALGDAMGMPSELWPRTRVKAHFGWIDRFLPGPKENNAACYFNRAEFTDDTAMALCLADALLECEGNIDPEIIGRNILAWAERFDAFNKNVLGPTSKIALNAIRDGKPIAALENNGVTNGAAMRVSPLGCLLPPTNLTAFIAEVALASSPTHKSDLAVAGAVVVAWAVSRAVNGDTWQSIADSLPAVAHQAQTARITTFSASLSARLELALNIVRHADGVESASEQLYQIIGAGTSTIESVPCAIAMVELANTDPNRCAVLCANLGGDTDTIGAMATAICGALHGVSAINPQLKQTLDEVNQLDFARYAVALASYRQRREAL | not soluble
MGSDKIHHHHHHMLGLPGEMQYVPGIHSPNEGPRPMTIQRKQTREVRIGKVRIGGANPVVVQSMTNTDTRDVEQTVEQIRQLQEAGCEIVRLAVLNEDAAWAIKPIRSQVSVPLVADIHFDHRLAVSALEAGVDALRINPGNIGTRAAVDRVVDAAKAHNAVIRIGVNSGSLETDLIDQYGGPTPEAMVESAFRHIRMLEDRNFGDIKVSLKSSSVSRCIEAYTLLSAKCDYPLHIGVTEAGTVLRGSIKSAVGLGVLLWQGIGDTLRVSLTSDPVAEMAVAWEILRSLGLRSRGPEIIACPTCGRCEIGLIALAEEVERRLEGETESFKVAVMGCVVNGPGEAREADLGIAGGRDKGIIFRKGEIVRTVKGGSNLLAAFMEELDTFLAHRRAERKDD | not soluble
MGSDKIHHHHHHMENQNHAFNYAYLLKQVKARVLLAQKKAIYTANEEMLSMYWDIGKLLSESQKQIGWGNNALEKLANDLKNDYPEMKGFSVRNCQFMIQFYNEYNQQLTNTKRAVSYLNNNEIVLPISKLGWSHNITLMQRTKDIKARYWYMIQCLKNGWSRDFLIEAIKQDYYHSHGALASNFDTTLPEIQAKQVKETLKDPYIFDMLTFTEEYDERDIELGLIKHIEKFLVEMGAGFAFMGRQYHIEVSEKDFYIDILMYNAFMHRYLVVELKRGEFQPEYIGKLNFYCSAVDDILCREGDNPTIGLLLCQNKDQIMAEYALRDVHKPIGISDYELGQALPKDIKSGLPSIEELENKLSRDLQDIDNKE | not soluble
QFDPSIVLTEVAMLLEKADINEEVERTKSHLKQFYGIILLEEPIGRKLDFLIQEMNREINTIGSKASSLKITEQVVEMKTTLEKIREQVQNVE | not soluble
MIRQRRRALTPEQQQEMGQQAATRMMTYPPVVMAHTVAVFLSFDGELDTQPLIEQLWRAGKRVYLPVLHPFSAGNLLFLNYHPQSELVMNRLKIHEPKLDVRDVLPLSRLDVLITPLVAFDEYGQRLGMGGGFYDRTLQNWQHYKTQPVGYAHDCQLVEKLPVEEWDIPLPAVVTPSKVWEWMGHHHHHHSH | not soluble
PVSGTPSGITELDNVTTGGQPGELIIIAARPAMGKTTFAQLVAQSTLNKYPDASIQFYSQEMPADQLVQRFMSMRSRISLQSIRQATELTELAWSKIAEAMGYIMNNWKDRLLIDDEPSLPPYRLRTKVRRNTRLYGKPKAIIIDYIQLMRSTGKFENRNLELAEISSELKKLAKETGCPVYALSQLNRSLEQRANKRPVNSDL | not soluble
